Results: patent US11633477B2, “Treatment of cornea using laminin” (KYOTO PREFECTURAL PUBLIC UNIVERSITY CORPORATION, priority 2014, dated 2023)

Columns and labels:
p-FAK = assay: Western blot of cell adhesion associated protein Phospho-FAK in corneal endothelial cells; format: cell-based, human; details: HCEC; laminin 511-E8 fragments 2.1 nM; three hours after seeding
Description: The medium was completely removed from a culture dish culturing human corneal endothelial cells. The cells were washed twice with PBS (−). After washing, phosphate buffer was added, and the mixture was incubated for 5 minute at 37° C. (5% CO2). Subsequently, PBS (−) was removed and TrypLE™ Select (10×) (Life Technologies, A12177-01) was added. The mixture was incubated for 10 minutes at 37° C. (5% CO2). Opti-MEMI (Life Technologies, 31985-070) was then added to collect the cells. After collecting the cells, the cells were centrifuged for 3 minutes at 1200 rpm to make a cell suspension with Opti-MEM I. At this time, a laminin 511-E8 fragment free group was prepared as a control, as well as a group supplemented with laminin 511-E8 fragments so that the final concentration was 2.1 nM. At the same time, mouse IgG and integrin neutralizing antibody were added to the laminin 511-E8 fragment added group to adjust the final concentration to 2 μg/ml. After adjustment, cells were seeded on a 12-well plate at 1×10^5 cells/well and proteins were collected after three hours of seeding. Western blot was used to detect Phospho-FAK (Cell Signaling TECHNOLOGY, 8556S), FAK (Cell Signaling TECHNOLOGY, 32855), and p-Paxillin (Cell Signaling TECHNOLOGY, 2541S). The dilution factor for each antibody was 1:1000. The densitometry was quantified using Image J.

[1] = test system: rabbit bullous keratopathy model; assay: Cultured corneal endothelium transplantation in rabbit bullous keratopathy model using laminin 511-E8 fragment; format: in vivo
Description: A rabbit corneal endothelium was mechanically detached using a 20 gauge silicone needle (Soft Tapered Needle; Inami & Co., Ltd., Tokyo, Japan) to make a bullous keratopathy model. The control group is a produced model that was not injected with cells. The RCEC group was injected with cultured rabbit corneal endothelial cells in the anterior chamber of the produced model and was maintained in a face-down posture for three hours. Further, the RCEC+E8 group was injected with cultured rabbit corneal endothelial cells, together with DMEM containing laminin 511-E8 fragments adjusted to a concentration of 2.1 nM, into the anterior chamber of the produced model and was maintained in a face-down posture for three hours.
The corneal thickness of an individual produced in FIG. 1 was measured sequentially with an ultrasound pachymeter (SP-2000; Tomey, Nagoya, Japan). When unmeasurable, 1200 μm, which is the measurable upper limit value, was used.
The histological examination in FIG. 3 was conducted as follows. The examination was checking normal functioning with immunostaining using Na^+/K^+-ATPase and ZO-1. This is for examining the functions of corneal endothelial cells, pumping function and barrier function. Na^+/K^+-ATPase and ZO-1 indicate normalcy of corneal endothelial cell functions, pumping function and barrier function, respectively. The approach is as follows.
After cells were immobilized, ZO-1 and Na^+/K^+-ATPase were used as function associated markers and immunostaining was applied for observation with a fluorescence microscope. For tissue staining inspection, cornea tissue extracted from a rabbit was immobilized with 4% formaldehyde for 10 minutes at room temperature (RT) and was incubated for 30 minutes with 1% bovine serum albumin (BSA). To find the phenotype of regenerated corneal endothelial tissue, immunohistochemical analysis was performed on an adhesion binding associated protein ZO-1 and pumping function associated protein Na^+/K^+-ATPase. ZO-1 and Na^+/K^+-ATPase were used as markers associated with cell functions. ZO-1 and Na^+/K^+-ATPase were stained using 1:200 dilution of ZO-1 polyclonal antibodies (Zymed Laboratories, Inc., South San Francisco, Calif.) and Na^+/K^+-ATPase monoclonal antibodies (Upstate Biotec, Inc., Lake Placid, N.Y.). 1:2000 dilution of Alexa Fluor®488 label (Life Technologies Corp., Carlsbad, Calif.) was used as the secondary antibody. The nucleus of cells was then stained with DAPI (Vector Laboratories, Inc., Burlingame, Calif.). The cell morphology was further stained with 1:400 dilution of Alexa Fluor® 488-conjugated phalloidin (Life Technologies Corp., Carlsbad, Calif.). The slide was then observed under a fluorescence microscope (TCS SP2 AOBS; Leica Microsystems, Welzlar, Germany).

[2] = test system: monkey bullous keratopathy model; assay: Laminin coating of corneal stroma in Descemet's membrane detached monkey bullous keratopathy model, then cell transplantation; format: in vivo; details: cynomolgus monkey, laminin 511-E8 21 nM in anterior chamber for one hour (coating), then MCEC with 2.1 nM
Description: A cynomolgus monkey corneal endothelium was mechanically detached using a 20 gauge silicone needle (Soft Tapered Needle; Inami & Co., Ltd., Tokyo, Japan) to make a bullous keratopathy model. The Descemet's membrane was detached in the produced bullous keratopathy model. Laminin 511-E8 fragments were injected into the anterior chamber of the bullous keratopathy model at a concentration of 21 nM and the model was left standing for one hour. The corneal stroma exposed by detaching the Descemet's membrane was coated thereby in the living body. Subsequently, 5.0×10^5 cultured monkey corneal endothelial cells were injected with DMEM containing laminin 511-E8 fragments adjusted to a concentration of 2.1 nM into the anterior chamber of the bullous keratopathy model, which was maintained in a face-down posture for three hours as in Example 3.

[3] = rabbit cornea after transplantation of RCEC with laminin 511-E8 fragments 2.1 nM

B1: laminin 511-E8 fragment: E8 fragment of human laminin α5β1γ1 (Nippi. Inc., 382-02413) (protein)
chain 1: AAEDAAGQALQQADHTWATVVRQGLVDRAQQLLANSTALEEAMLQEQQRLGLVWAALQGARTQLRDVRAKKDQLEAHIQAAQAMLAMDTDETSKKIAHAKAVAAEAQDTATRVQSQLQAMQENVERWQGQYEGLRGQDLGQAVLDAGHSVSTLEKTLPQLLAKLSILENRGVHNASLALSASIGRVRELIAQARGAASKVKVPMKFNGRSGVQLRTPRDLADLAAYTALKFYLQGPEPEPGQGTEDRFVMYMGSRQATGDYMGVSLRDKKVHWVYQLGEAGPAVLSIDEDIGEQFAAVSLDRTLQFGHMSVTVERQMIQETKGDTVAPGAEGLLNLRPDDFVFYVGGYPSTFTPPPLLRFPGYRGCIEMDTLNEEVVSLYNFERTFQLDTAVDRPCARSKSTGDPWLTDGSYLDGTGFARISFDSQISTTKRFEQELRLVSYSGVLFFLKQQSQFLCLAVQEGSLVLLYDFGAGLKKAVPLQPPPPLTSASKAIQVFLLGGSRKRVLVRVERATVYSVEQDNDLELADAYYLGGVPPDQLPPSLRRLFPTGGSVRGCVKGIKALGKYVDLKRLNTTGVSAGCTADLLVGRAMTFHGHGFLRLALSNVAPLTGNVYSGFGFHSAQDSALLYYRASPDGLCQVSLQQGRVSLQLLRTEVKTQAGFADGAPHYVAFYSNATGVWLYVDDQLQQMKPHRGPPPELQPQPEGPPRLLLGGLPESGTIYNFSGCISNVFVQRLLGPQRVFDLQQNLGSVNVSTGCAPALQAQTPGLGPRGLQATARKASRRSRQPARHPA
chain 2: LQHSAADIARAEMLLEEAKRASKSATDVKVTADMVKEALEEAEKAQVAAEKAIKQADEDIQGTQNLLTSIESETAASEETLFNASQRISELERNVEELKRKAAQNSGEAEYIEKVVYTVKQSAEDVKKTLDGELDEKYKKVENLIAKKTEESADARRKAEMLQNEAKTLLAQANSKLQLLKDLERKYEDNQRYLEDKAQELARLEGEVRSLLKDISQKVAVYSTCL
chain 3: EANDILNNLKDFDRRVNDNKTAAEEALRKIPAINQTITEANEKTREAQQALGSAAADATEAKNKAHEAERIASAVQKNATSTKAEAERTFAEVTDLDNEVNNMLKQLQEAEKELKRKQDDADQDMMMAGMASQAAQEAEINARKAKNSVTSLLSIINDLLEQLGQLDTVDLNKLNEIEGTLNKAKDEMKVSDLDRKVSDLENEAKKQEAAIMDYNRDIEEIMKDIRNLEDIRKTLPSGCFNTPSIEKP
p-FAK (p-FAK): promoted | corneal thickness ([1]; average on day 7, RCEC injected with laminin 511-E8 fragments 2.1 nM, ultrasound pachymeter): 637 μm | N-cadherin (adherence junction) immunostaining [1, 3]: normally expressed | Na+/K+-ATPase (pumping function) immunostaining [1, 3]: expressed | ZO-1 (tight junction, barrier function) immunostaining [1, 3]: expressed | cell morphology by phalloidin staining [1, 3]: monolayer polygonal morphology | cornea appearance in pictures of anterior ocular segment ([1]; rabbit, cultured RCEC injected into anterior chamber with or without laminin 511-E8 fragments 2.1 nM, after one and two weeks): transparent and healed | cornea appearance (anterior ocular segment pictures) [2]: transparent and healed
